Data reported in IntAct's records for PubMed 22841714.

B1: ADP-ribosylation factor 6 (Mus musculus), P62331 (parent)
chain: MGKVLSKIFGNKEMRILMLGLDAAGKTTILYKLKLGQSVTTIPTVGFNVETVTYKNVKFNVWDVGGQDKIRPLWRHYYTGTQGLIFVVDCADRDRIDEARQELHRIINDREMRDAIILIFANKQDLPDAMKPHEIQEKLGLTRIRDRNWYVQPSCATSGDGLYEGLTWLTSNYKS
partner: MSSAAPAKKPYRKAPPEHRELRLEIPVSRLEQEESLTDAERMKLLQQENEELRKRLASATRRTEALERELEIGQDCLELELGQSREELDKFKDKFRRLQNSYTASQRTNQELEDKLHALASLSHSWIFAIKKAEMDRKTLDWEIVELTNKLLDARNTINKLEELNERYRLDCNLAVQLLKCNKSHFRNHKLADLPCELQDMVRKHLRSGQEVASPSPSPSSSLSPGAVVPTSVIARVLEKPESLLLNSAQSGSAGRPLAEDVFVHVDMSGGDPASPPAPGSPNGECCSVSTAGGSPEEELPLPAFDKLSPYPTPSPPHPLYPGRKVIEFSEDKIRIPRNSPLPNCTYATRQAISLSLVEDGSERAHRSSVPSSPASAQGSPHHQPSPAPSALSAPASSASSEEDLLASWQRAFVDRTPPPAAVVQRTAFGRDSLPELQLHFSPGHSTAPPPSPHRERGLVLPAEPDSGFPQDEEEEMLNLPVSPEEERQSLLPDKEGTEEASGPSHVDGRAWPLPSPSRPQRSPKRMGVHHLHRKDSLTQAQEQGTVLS

Variants of: B1
Settings: with tjap1_mouse Tjap1, Q9DCD5

Variant | effect of a mutation on the interaction
T44N | disrupting interaction
